# ± gives the half width of the 95% confidence interval.
# Experiment: folding stability dG unfold from trypsin proteolysis; higher = more stable
# Outline: (§1)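 K50 was inferred by Bayesian fitting of sequencing counts obtained after protease digestion of designed mini-proteins. Unfolding free energy was derived by comparison with a sequence-predicted unfolded-state K50 and a shared folded-state K50, for each protease or both combined. The mini-proteins were under 80 residues, had no cysteine, were carried in a PA-tagged cDNA display construct, and were kept only if AlphaFold2 dimer inter-PAE exceeded 15.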
row,Sequence,folding stability dG unfold [kcal/mol]
1,SAMVEVSTLPDGTTRVTITGKDPAAFEKELAELIEKIKKEGINATITKTREEPIPEEPELYRAELEIIVSAG [r14_119_JUSTAS],1.54 ± 0.062
2,SKPNLEVKEVEIKMTAEEIKKLLKPNVTKIEKVNGKYYVTVKVNGVLVKIEIKYDKETNEVTVKIYVIKPSA [r9_604_TrROS_Hall],2.37 ± 0.072
3,SAVSTAQLPDDTTLTTITLPGDPSVTLTITTRKLPDGTPYLDATITLPDGTPVTVTFPAGTEAAVIAALASA [r9_310_JUSTAS],2.51 ± 0.097
4,SAGPPVEIPITIKIRYWKPDPDGPKPVEERTIPIPVRMPPDQLDDPAFNNFIKEALDELPPGIRMIEITSAG [r5_849_TrROS],0.526 ± 0.042
5,SAGGSAGGSGYLSQERPVTIKLPNGEVVEVDGVVRESPESDVVTVEIPETGQTIEVPKANVVESAGGSAGGS [r12_772_JUSTAS],0.909 ± 0.06
6,SAGGKPGEKPRIRIQVKVRYPGNGRKQSITIEIVPDAIEQGLSASELADEIARKMGMPVKIEEIEILSAGGS [r16_554_TrROS],1.873 ± 0.015
7,SPVSLSFTTAPSGLPTVTSASQPADGSLLLTLTEPATGATTTLTLPPGLPPGVERTVTLPGPDGATTLTVGS [r1_43_JUSTAS],-0.678 ± 0.19
8,SAGGSAGGSAGGSKKKIKIYIENENGEKKTIEIEVEGDIDEIAKELAKKYNVKIVKIEPSAGGSAGGSAGGS [r4_412_TrROS_Hall],2.77 ± 0.11
9,PDNEPPQWYRVWIPIDPEDGKIEVKPGGSTMTIDLPDGRPIEFYVPQGMSPSDIKNWAKGIAKELAEELKNS [r1_25_TrROS],1.54 ± 0.076
10,SAGGSAGGSAEVEIEVDKETKELYIKDSNGKVKKIKVKVVKVEVKKPVVTLPKEELSEEELKSAGGSAGGSA [r18_59_TrROS_Hall],0.818 ± 0.084
11,SAGGKPPGLSEIPLPDNKTEKVPVNSDIVLKRPDGTELKYKLPPEPVTTEKNKYTIKLPNGEITIPINSAGG [r13_643_JUSTAS],-1.03 ± 0.26
12,SAGKEKEIAEAIEEFLKEKGYDVKVKLIKVNPNNPNLSKVVLEVEVLGYLPDKKPLGKKRFKLVILGGSAGG [r19_418_TrMRF],2.64 ± 0.066
13,SAGGDLIERVAKELMEKFPMKPGEPRPITIEIPYPDGYRIKVDIPVRVNPDNGEFRFKFDIKEIEPWSAGGS [r16_634_TrROS],1.02 ± 0.052
14,SAGPKMKPIPFEFRNPDNGHKVKISVYYNPNGKRKIMITNPGDGRIYTFKINPGGIEIEKEIPLDDIKFSAG [r5_619_TrROS],1.13 ± 0.13
15,SAGGSITKTLGTEEKGDKTITYSVTTSPEGKITFTTTTKTPSGSGTSTTTTTTTTPLAGLPLPPLGGSAGGS [r8_458_JUSTAS],0.473 ± 0.042
16,ENYVAIEITMEMPNPDGMEMKFDLKIIKLDPDDGKFAIEMSMEMENPNGKPYRHPMWFVIPADELKEFLEAS [r1_371_TrROS],2.56 ± 0.22

row,Sequence,folding stability dG unfold [kcal/mol]
1,SAGMTIIKIEFPDGSKATVDPTNPSTMTITDPNGNTTVLNLTGVEEAKKQLIETLKKETGLPVKKVEVESAG [r5_119_JUSTAS],0.493 ± 0.045
2,SAGGSAKTKVIEIEIDLSPEEIEELAKKLKEEGKVEEVKVEYDEKTGKVKVTVVVRDKNGEWKKLSSAGGSA [r15_177_TrROS_Hall],0.854 ± 0.066
3,SAGGMKIYYISKGKKYYVKVILPNNEIIEIETESLEEAIKKAKEELIKKYPNIPPENFKIDYIIPLPESAGG [r13_887_TrMRF],3.81 ± 0.2
4,SAGGSAGGSAGGSMVTLTVEKTFTSLLKTPESELIPVTSTVTEEVTIPESEATEELIKELSAGGSAGGSAGG [r7_777_JUSTAS],0.388 ± 0.054
5,SAGGSPKPVPVTITSVTSTSVEVYLPSTGATFTFNLNEEKTLTLPDGSKIYFTFNSDGSVTATVIEYGSAGG [r13_352_TrMRF],5.03 ± 0.73
6,SAGGSSESKTVTAPDGRVLEFTKSLDPTSSNSRYTLTVYAPESGEPLREAEFSSEEEAEKYIAEGLGSAGGS [r8_450_JUSTAS],-0.0113 ± 0.067
7,SAGGSAMYYRFEIPRPDGVIEEIWIKMTPEEAKALVEALEADPNVASVKVEAITEEEARKLGIFENSAGGSA [r15_39_JUSTAS],4.17 ± 0.28
8,SAGGSAGGSAAPVPPDRTLTVYRDPNTDKYTIRTPDGSVTVSPITPEELRAAGAPVVYLGPESAGGSAGGSA [r18_125_JUSTAS],-1 ± 0.25
9,SAGGSKGKAPVKVRFLFLEDGKVVAEAEVEFEVEVPIPPVPPVFVPEEARKALENGDIEKALKLLGSAGGSA [r2_196_TrMRF],0.827 ± 0.036
10,SAGGSAGGSAGGHMVMITITIPIKKGAEIKFGDWDIKVPPGEQIQITIMIPVPPPDDDKSAGGSAGGSAGGS [r10_949_TrROS],2.91 ± 0.16
11,SAGMTITVKPGEKVKVTIKVEVFDENGKLIKKEEKEVEITVKEGDEITIKIKLDKPVKVKIEIKIEKKSAGG [r19_295_TrROS_Hall],2.67 ± 0.17
12,SAGDGDKMRGEHEREDPNGKKREVTHEMKVQPPPVPKPKIELPADDIDEIDPDNGTLRNPGNGKPFPIGSAG [r5_807_TrROS],0.0244 ± 0.15
13,SAGGSAGGSAGPKIPKNYKIVATYTVPPTNKKKLILYDPKTNKPLIFDTVSGKIYPFGKKSAGGSAGGSAGG [r11_268_TrMRF],1.59 ± 0.027
14,SAAPVRVEVEYDPERGVLRVRLYIPATSPEEARELVERFFAALGAEARITENPETGTFVVEVDIRLPPASAG [r14_424_TrMRF],4.09 ± 0.09
15,SAGGSAGGSMVITVDPSLSPEEAVERAKEEVKKEVPESEPVEVTVVIKDPETGKTTEIPVKLDSAGGSAGGS [r12_1051_JUSTAS],0.739 ± 0.047

# Experiment: folding stability dG unfold from chymotrypsin proteolysis; higher = more stable
# Outline: as §1
row,Sequence,folding stability dG unfold [kcal/mol]
1,SAMVEVSTLPDGTTRVTITGKDPAAFEKELAELIEKIKKEGINATITKTREEPIPEEPELYRAELEIIVSAG [r14_119_JUSTAS],1.48 ± 0.055
2,SKPNLEVKEVEIKMTAEEIKKLLKPNVTKIEKVNGKYYVTVKVNGVLVKIEIKYDKETNEVTVKIYVIKPSA [r9_604_TrROS_Hall],3.115 ± 0.03
3,SAVSTAQLPDDTTLTTITLPGDPSVTLTITTRKLPDGTPYLDATITLPDGTPVTVTFPAGTEAAVIAALASA [r9_310_JUSTAS],2.46 ± 0.029
4,SAGPPVEIPITIKIRYWKPDPDGPKPVEERTIPIPVRMPPDQLDDPAFNNFIKEALDELPPGIRMIEITSAG [r5_849_TrROS],1.28 ± 0.064
5,SAGGSAGGSGYLSQERPVTIKLPNGEVVEVDGVVRESPESDVVTVEIPETGQTIEVPKANVVESAGGSAGGS [r12_772_JUSTAS],-0.035 ± 0.16
6,SAGGKPGEKPRIRIQVKVRYPGNGRKQSITIEIVPDAIEQGLSASELADEIARKMGMPVKIEEIEILSAGGS [r16_554_TrROS],1.692 ± 0.013
7,SPVSLSFTTAPSGLPTVTSASQPADGSLLLTLTEPATGATTTLTLPPGLPPGVERTVTLPGPDGATTLTVGS [r1_43_JUSTAS],0.723 ± 0.11
8,SAGGSAGGSAGGSKKKIKIYIENENGEKKTIEIEVEGDIDEIAKELAKKYNVKIVKIEPSAGGSAGGSAGGS [r4_412_TrROS_Hall],3.16 ± 0.081
9,PDNEPPQWYRVWIPIDPEDGKIEVKPGGSTMTIDLPDGRPIEFYVPQGMSPSDIKNWAKGIAKELAEELKNS [r1_25_TrROS],1.58 ± 0.18
10,SAGGSAGGSAEVEIEVDKETKELYIKDSNGKVKKIKVKVVKVEVKKPVVTLPKEELSEEELKSAGGSAGGSA [r18_59_TrROS_Hall],-0.357 ± 0.17
11,SAGGKPPGLSEIPLPDNKTEKVPVNSDIVLKRPDGTELKYKLPPEPVTTEKNKYTIKLPNGEITIPINSAGG [r13_643_JUSTAS],-0.0683 ± 0.26
12,SAGKEKEIAEAIEEFLKEKGYDVKVKLIKVNPNNPNLSKVVLEVEVLGYLPDKKPLGKKRFKLVILGGSAGG [r19_418_TrMRF],2.72 ± 0.046
13,SAGGDLIERVAKELMEKFPMKPGEPRPITIEIPYPDGYRIKVDIPVRVNPDNGEFRFKFDIKEIEPWSAGGS [r16_634_TrROS],1.43 ± 0.16
14,SAGPKMKPIPFEFRNPDNGHKVKISVYYNPNGKRKIMITNPGDGRIYTFKINPGGIEIEKEIPLDDIKFSAG [r5_619_TrROS],0.857 ± 0.67
15,SAGGSITKTLGTEEKGDKTITYSVTTSPEGKITFTTTTKTPSGSGTSTTTTTTTTPLAGLPLPPLGGSAGGS [r8_458_JUSTAS],0.831 ± 0.18

# Reference: the supplement of paper PMC12764529
